Source: patent US20150232562A1 (Ablynx, published 2015)

Target: T1, recombinant human ErbB2/Fc chimera (human, UniProt P04626 23-652)
T1 construct: bought from R&D Systems; also called rhErbB2-Fc; rhErb2-Fc; Fc part of the bought chimera not given; not described
Assay: ELISA, coated ErbB2/Fc

Binder | binding result
12C52/1-118 (VHH, C-term myc-His6 tag) VHH: EVQLVESGGGLVQAGGSLRLSCAVSGGTFESDTMAWFRQAPGKEREFVARVSWIRTTYYSDSVKGRFTISKDNAKNTVYLQMNSLKPEDTAVYYCAAQTLGRSLYDYWGQGTQVTVSS | binds
11A71A/1-116 (VHH, C-term myc-His6 tag) VHH: EVQLVESGGGLVQPGGSLRLSCAASGNIDGIITMGWYRQRPGKPREWVGTINSGGDTNYAGSVKGRFTIARDDAKNTMYLQMNGMKPEDTAVYYCKMNRAGIYEYWGQGTQVTVSS | binds
11B42/1-123 (VHH, C-term myc-His6 tag) VHH: EVQLVESGGGLVQAGDSLRLSCAASGFTFSNHIMGWFRQAPGKERELIAHITWNGGSTYYADSVKGRFAISRDNALNTVYLQMNSLKPEDTAVYYCAARPSYSTNNVKSYRYWGQGTQVTVSS | binds
11A91/1-124 (VHH, C-term myc-His6 tag) VHH: EAQLVESGGGLVQAGGSLRLSCTASGRTYSTTMGWFRQAPGKEREFVAAIRWSGGSAFYADSVKGRFTISRDNAKNTVYLQMTSLMPEDTAVYYCADTPVYYQRYYDQNAYDYWGQGTQVTVSS | binds
21A92/1-127 (VHH, C-term myc-His6 tag) VHH: EVQLVESGGGQVQAGGSLRLSCTESGRAFNTRAMGWFRQAPEKEREFVAGITMSGFNTRYADSVKGRFTISRDNAKGTVYLQMSSLKPEDTAVYYCAADSITDRRSVAVAHTSYYYWGQGTQVTVSS | binds
11B31/1-124 (VHH, C-term myc-His6 tag) VHH: EVQLVESGGGLVQAGGSLRLSCAASGGAFGVYHMGWFRQAPGKEREFVAAIRSGGTTLYEDSVKGRFTISRDNAKNTVYLRMNSLKPEDTAVYYCATQIYYRTNYYSQNAYDYWGQGTQVTVSS | binds
13G81/1-124 (VHH, C-term myc-His6 tag) VHH: EVQLVESGGGLVQAGGSLRLSCAASGGTFGVYHMGWFRQAPGKEREFVAVIRSGGTTLYADSVKGRFTISRDDAKNTVYLQMNSLKPEDTAVYLCAAQIYYRTNYYSQNNYDYWGQGTQVTVSS | binds
11A121/1-126 (VHH, C-term myc-His6 tag) VHH: EVQLVESGGGLVQAGGSLRLSCVVSEGTFSSYSMGWFRQAPGKDREFVSAITWNGTRTYYRDSVKGRFTISRDNAKNTVQLQMNSLKPEDTAVYYCAVSQPLNYYTYYDARRYDYWGQGTQVTVSS | binds
13G71/1-124 (VHH, C-term myc-His6 tag) VHH: EVQLVESGGGLVQAGGSLRLSCAASGRAFSSYAMGWFRQAPGKERDFVAAITSSGSTNYADSVKGRFTISRDNAKNTVYLQMNSLKPEDTAVYYCGARVNYAAYSRLEHDYHYWGQGTQVTVSS | binds
13G41/1-121 (VHH, C-term myc-His6 tag) VHH: EVQLVESGGGLVQPGGSLTLSCVGSGRRFSADVMGWYRQAPGKQREFVASISSGSAINYADSVKGRFTVSRDNAQNTVYLQMNSLKIEDTGVYYCNARRIVNVEGAYRDYWGQGTQVTVSS | binds
22C712/1-123 (VHH, C-term myc-His6 tag) VHH: EVQLVESGGGLVQAGGSLGLSCAASGRTFSNYAMGWFRQAPGKEREFVAGISWSGGHTFYADSVKGRFTISRDNTKNTVYLQMNSMRPEDTAVYYCAARLSSVAVASTRYDYWGQGTQVTVSS | binds
12C61/1-126 (VHH, C-term myc-His6 tag) VHH: EVQLVESGGGLVQAGGSLRLSCAASGRTFSSNAMAWFRQAPGNERELVSAIGWSGASTYYIDSVEGRFTISRDNAKNTVYLQMNSLKPEDTAVYYCAASRYSGGVATARRSEYHYWGQGTQVTVSS | binds
13G72/1-118 (VHH, C-term myc-His6 tag) VHH: EVQLVESGGGLVQAGGSLRLSCAASGRAFSSYAMGWFRQAPGKERDFVAAITSSGSTNYADSVKGRFTISRDNAKNTVYLQMNSLKPEDTAVYYCAAKYYSYYAYDYWGQGTQVTVSS | binds
22B910/1-121 (VHH, C-term myc-His6 tag) VHH: EVQLVESGGGLVQPGGSLPLSCAASGSIFRMNDMGWYRQAPGKQRERVATLTSAGNTNYADSVKGRFTISGDDARNTVYLQMNSLNPEDTAVYYCNAKVVVAVEGAKYDYWGQGTQVTVSS | binds

Other lines, results leading:

binding result | Binder
binds | 11A13/1-125 (VHH, C-term myc-His6 tag) VHH: EVQLVESGGGLVQAGDSLRLSCVASGGTFGSYAMGWFRQAPGKEREFVATIDWSGDTAFYADSVKGRFTISRDIANDVVYLQMNSLEPEDTAVYYCARNRQSGVASENLRLYTYWGQGTQVTVSS
binds | 13G101/1-123 (VHH, C-term myc-His6 tag) VHH: EVQLVESGGGLVQPGDSLRLSCSASEGTLSRSRVAWFRQAPGKEREFVTVISGVGTSYADSVKGRFTISRDDAKNTVYLQMNSLKAEDTAIYYCAADFRSTWLSSSGSSYTYWGQGTQVTVSS
binds | 14H12/1-125 (VHH, C-term myc-His6 tag) VHH: EVQLVESGGGLVQAGGSLRLSCIASERTFSSAGVGWFRQAPGKERDFVAAISWNGVTIYYADSVKGRFTISRDNAKNTVYLQMNSLKPEDTAVYYCAARINYSVLTTTSSSYHYWGQGTQVTVSS
binds | 13E111/1-124 (VHH, C-term myc-His6 tag) VHH: EVQLVESGGGLVQAGSSLRLSCALSGRTFSDYAIGWFRQAPGKEREFVAAISGWSGGTTNYADSVKGRFTISRDNGKNTVDLRMNSLKPEDTAVYYCAARPAVVHTRKESYPYWGQGTQVTVSS
binds | 22B101/1-123 (VHH, C-term myc-His6 tag) VHH: EVQLVESGGGLVQTGGSLRLSCAASGPTFSDYAIGWFRQAPGKEREFVAAISSSGISTIYGDSVKGRFDISRDNAKNTVYLQMNRLKPEDTAVYYCAARLFMATPNQGQYYYWGQGTQVTVSS
binds | 13G74/1-125 (VHH, C-term myc-His6 tag) VHH: EVQLVESGGGLVQAGGSLRLSCATSGRTFSTYASMGWFRQTPGKEREFVAAITSSGSTNYADSVKGRFTISRDNAKNTVYLQMNSLKPEDTAVYYCGARVNYAAYSRLEHDYHYWGQGTQVTVSS
binds | 21A81/1-122 (VHH, C-term myc-His6 tag) VHH: EVQLVESGGGLAQAGGSLRLSCAVFGRSRYGMAWFRRAPGKEREFVAGIAWNGASIGSADSVRGRFTISRDNSENTVYFEMGSLKPEDTAVYYCAICRISWCAGAESDYGYWGQGTQVTVSS
binds | 21A61/1-125 (VHH, C-term myc-His6 tag) VHH: EVQLVESGGGLVQAGDSLRLSCVASGDSFNTYTMGWFRQAPGKEREFVAAIRWSGGTTFYGDSVKGRFTISRDYAKNTWYLQMNTLKPEDTAAYYCAAVATYSRNVGSVRNYDYWGQGTQVTVSS
binds | 13E81/1-124 (VHH, C-term myc-His6 tag) VHH: EVQLVESGGGLVQAGGSLRLSCAASGGTFSVYHMAWFRQAPGKEREFVAAIRSSGGLFYALSVSGRFTISRDNAKDTMYLQMNVLKPEDTAVYYCAASPVYYIDYSSQYKYGYWGQGTQVTVSS
binds | 13G93/1-123 (VHH, C-term myc-His6 tag) VHH: EVQLVESGGGLAQAGDSLRLSCVDSGSSFSAYAMGWFRQAPGKEREFVAAVSWDGRNTYYADSVKGRFTISRDNAKNTLYLQTTSLRPEDTGVYYCAEDKQSGVSVNPKYAYWGQGTQVTVSS
